Test results from article PMC11784564 (RSC Chemical Biology, 2025).

What was measured:
[1] = target: T1, PfSir2A (Plasmodium falciparum) (UniProt Q8IE47); assay: EMSA; conditions: room temperature
T1 sequence: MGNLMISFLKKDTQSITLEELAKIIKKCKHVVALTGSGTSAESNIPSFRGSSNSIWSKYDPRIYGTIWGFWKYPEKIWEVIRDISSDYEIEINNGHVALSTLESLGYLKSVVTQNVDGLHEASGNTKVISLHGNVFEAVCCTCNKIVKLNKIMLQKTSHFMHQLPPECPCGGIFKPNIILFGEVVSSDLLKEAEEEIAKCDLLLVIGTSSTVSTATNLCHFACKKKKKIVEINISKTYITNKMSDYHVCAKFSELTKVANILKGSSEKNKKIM

PfSir2A [2] = target: T2, PfSir2A (Plasmodium falciparum, UniProt Q8IE47); assay: HPLC deacetylation assay with H3K9Ac peptide; assay type: biochemical
T2 sequence (Q8IE47 1-273): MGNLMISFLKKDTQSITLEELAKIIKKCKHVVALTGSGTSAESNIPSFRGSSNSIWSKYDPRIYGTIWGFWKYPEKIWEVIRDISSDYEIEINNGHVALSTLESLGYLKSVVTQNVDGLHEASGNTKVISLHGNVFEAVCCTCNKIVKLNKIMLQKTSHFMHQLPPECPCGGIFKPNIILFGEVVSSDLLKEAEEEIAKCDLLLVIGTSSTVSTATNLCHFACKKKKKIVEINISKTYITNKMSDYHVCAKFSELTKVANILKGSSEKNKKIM

PfSir2A [3] = target: T2, PfSir2A; assay: HPLC demyristoylation assay with H3K9Myr peptide; assay type: biochemical
PfSir2A [4] = target: T3, PfSir2A (Plasmodium falciparum, UniProt Q8IE47 1-273); assay: MST
T3 sequence: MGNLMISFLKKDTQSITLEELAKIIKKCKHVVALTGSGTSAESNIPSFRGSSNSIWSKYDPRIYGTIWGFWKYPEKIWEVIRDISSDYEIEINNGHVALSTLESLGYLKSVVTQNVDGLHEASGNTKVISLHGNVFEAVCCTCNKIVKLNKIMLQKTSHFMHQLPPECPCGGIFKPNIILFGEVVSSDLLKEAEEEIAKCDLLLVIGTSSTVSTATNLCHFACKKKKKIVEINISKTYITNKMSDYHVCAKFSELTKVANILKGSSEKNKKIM

601 nucleosome assembly sequence DNA, 147 bp
Kd ([1]; […]) / MST buffer): 4 µM

c1cncc(-c2c[nH]nn2)c1 [3-TYP]
IC50 (PfSir2A [2]): ~59.6 µM

CCCCCCCCCCCCCC(=O)O [myristic acid]
IC50 (PfSir2A [3]): 107 ± 15 µM

NC(=O)c1ccc[n+]([C@@H]2O[C@H](CO)[C@@H](O)[C@H]2O)c1 [nicotinamide riboside]
IC50 (PfSir2A [2]): 155 ± 14.9 µM

H3K9Ac dNuc (601-positioned nucleosome)
Kd ([1]; H3K9Ac on histone H3; […]) / MST buffer): 1.4 µM

GAAGTCGGGGATGGCAGAGGCAGTGCT (ssDNA) [ssDNA (MST)]
Kd (PfSir2A [4]): 0.138 µM
